Assay results taken from FireProtDB (doi:10.1074/jbc.m704364200).

B1: Prolactin, P01236 (parent)
chain: MNIKGSPWKGSLLLLLVSNLLLCQSVAPLPICPGGAARCQVTLRDLFDRAVVLSHYIHNLSSEMFSEFDKRYTHGRGFITKAINSCHTSSLATPEDKEQAQQMNQKDFLSLIVSILRSWNEPLYHLVTEVRGMQEAPEAILSKAVEIEEQTKRLLEGMELIVSQVHPETKENEIYPVWSGLPSLQMADEESRLSAYYNLLHCLRRDSHKIDNYLKLLKCRIIHNNNC

Variants of: B1
Settings: Homo sapiens; pH 7.4; Thermal; CD; NaH2PO4 100mM; structure 1RW5; whole UniProt chain shown

Row | Variant | Tm | change of melting temperature, mutant - wild type (higher = more stable) | unfolding enthalpy (calorimetric)
1 | G157F | 93.8 °C | 12.7 °C | 
2 | G157Y | 96.8 °C | 15.7 °C | 
3 | G157D | 84.2 °C | 3.1 °C | 58 kcal/mol
4 | G157N | 89.8 °C | 8.7 °C | 
5 | G157L | 96.8 °C | 15.7 °C | 
6 | G157V | 101 °C | 19.7 °C | 
7 | G157R | 79 °C | -2.2 °C | 55.9 kcal/mol
8 | G157P | 70.8 °C | -10.3 °C | 50.1 kcal/mol
